Reference: patent US20240209112A1 (GENOME, published 2024)

T1: BCAM protein (antigenic protein coated in the ELISA) (UniProt P50895 32-547, limits assumed)
T1 construct: also called antigen protein; Lu
T1 sequence (looked up): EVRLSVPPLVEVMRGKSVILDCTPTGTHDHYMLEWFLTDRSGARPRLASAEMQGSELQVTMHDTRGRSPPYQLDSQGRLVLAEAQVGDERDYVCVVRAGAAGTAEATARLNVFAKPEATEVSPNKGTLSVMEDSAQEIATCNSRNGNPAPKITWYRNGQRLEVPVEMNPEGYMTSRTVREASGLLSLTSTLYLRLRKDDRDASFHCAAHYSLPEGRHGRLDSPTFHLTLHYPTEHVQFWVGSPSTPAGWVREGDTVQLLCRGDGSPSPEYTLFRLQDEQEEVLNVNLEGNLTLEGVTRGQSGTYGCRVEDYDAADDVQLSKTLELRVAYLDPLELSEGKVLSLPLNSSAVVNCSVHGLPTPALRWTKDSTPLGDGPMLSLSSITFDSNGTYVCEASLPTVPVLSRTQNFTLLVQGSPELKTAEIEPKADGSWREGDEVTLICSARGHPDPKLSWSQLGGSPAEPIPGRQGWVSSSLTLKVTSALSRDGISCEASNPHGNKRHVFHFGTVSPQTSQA

T2: Human BCAM expressed on transfected HEK293FT cells (human, UniProt P50895 32-628)
T2 construct: whole, on cells; also called Human BCAM antigens; 293FT/BCAM1
T2 sequence (looked up): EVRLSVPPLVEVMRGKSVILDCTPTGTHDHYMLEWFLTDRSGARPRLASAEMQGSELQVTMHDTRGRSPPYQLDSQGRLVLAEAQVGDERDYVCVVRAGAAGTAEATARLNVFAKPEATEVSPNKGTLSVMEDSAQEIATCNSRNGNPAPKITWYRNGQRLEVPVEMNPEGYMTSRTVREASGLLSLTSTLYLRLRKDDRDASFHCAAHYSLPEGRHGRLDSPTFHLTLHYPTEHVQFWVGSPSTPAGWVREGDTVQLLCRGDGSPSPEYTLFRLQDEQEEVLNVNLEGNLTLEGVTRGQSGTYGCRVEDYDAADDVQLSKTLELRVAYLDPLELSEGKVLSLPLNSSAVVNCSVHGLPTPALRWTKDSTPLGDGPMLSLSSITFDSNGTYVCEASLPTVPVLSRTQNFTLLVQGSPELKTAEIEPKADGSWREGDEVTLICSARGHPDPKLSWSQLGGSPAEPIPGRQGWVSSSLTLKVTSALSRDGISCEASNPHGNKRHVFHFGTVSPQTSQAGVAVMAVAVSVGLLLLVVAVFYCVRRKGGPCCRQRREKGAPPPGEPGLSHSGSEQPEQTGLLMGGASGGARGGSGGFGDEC

T3: Human BCAM (amine-coupled to AR2G biosensors) (human, UniProt P50895 32-547, limits assumed)
T3 construct: also called human BCAM protein
T3 sequence (looked up): T1 sequence (looked up)

B1: anti-BCAM human IgG4 antibody 111c (antibody, V domains shown)
VH: EVQLVQSGGGLVKPGGSLRLSCAASGFTFSDYYMSWIRQAPGKGLEWVSYTSSSGSTIYYADSVKGRFTISRDNAKNSLYLQMNSLRAEDTAVYYCARDITAFDIWGQGTMVTVSS
VL: LPVLTQPPSASGSPGQSVTISCTGTSSDVGGYNYVSWYQQHPGKAPKLMIYEVNKRPSGVPDRFSGSKSGNTASLTVSGLQAEDEADYYCCSYAGSNNYVFGTGTKVTVL
B2: anti-BCAM human IgG4 antibody 111b (antibody, V domains shown)
VH: EVQLVQSGAEVKKPGASVKVSCKASGYTFTSYYMHWVRQAPGQGLEWMGIINPSGGSTSYAQKFQGRVTMTRDTSTSTVYMELSSLRSEDTAVYYCARDGKGWDYYGSGSPLQYWGQGTLVTVSS
VL: LPVLTQPPSVSKGLRQTATLTCTGNSNNVGNQGAAWLQQHQGHPPKLLSYRNNDRPSGISERLSASRSGNTASLTITGLQPEDEADYYCSAWDSSLSAWVFGGGTKLTVL
B3: anti-BCAM human IgG4 antibody 111a (antibody, V domains shown)
VH: QVTLKESGPGLVKPSGTLSLTCAVSGGSISSSNWWSWVRQPPGKGLEWIGEIYHSGSTNYNPSLKSRVTISVDKSKNQFSLKLSSVTAADTAVYYCARAYTVTTTYFDYWGQGTLVTVSS
VL: NIQMTQSPSTLSASVGDRVTITCRASQSMSTWLAWYQQKPGRAPKLLIYKASALETGVPSRFSGSGSGTQFTLTISSLQPDDFATYYCQQYDEFASFGQGTKVEIK
notes: Derived from a human scFv phage library; also called 11la

target: T1, BCAM protein (antigenic protein coated …); assay: ELISA on coated BCAM protein
Description: (§1) In order to confirm the binding ability of each antibody prepared in Example 1 to an antigen protein (BCAM protein), an ELISA (Enzyme-Linked Immunosorbent Assay) test was performed. The antigenic protein was diluted in PBS buffer and prepared to a concentration of 15 nM. Each well of a 96-well half plate (Costar, Cat. No. 3690) was coated with 50 μL of the antigenic protein, followed by overnight incubation at 4° C. Next day, after all the solutions in the plate were removed, a blocking buffer (3% BSA in PBS) was added to each well, followed by incubation at 37° C. for 1 hour. Three antibody samples (111a, 111b, and 111c) were sequentially diluted in the blocking buffer from 1 μM to 7 points (1 pM) at a dilution ratio of 10-fold. After the blocking process was completed, the buffer was removed from the well, and the antibodies prepared by the dilution was added to each well by 50 μL, followed by incubation at 37° C. for 2 hours. The incubated well was washed with 0.1% PBST (0.1% Tween 20 in PBS) and were treated with HRP-conjugated anti-human IgG Fc antibodies (ThermoFisher Scientific, Cat. No.: 31423) which were secondary antibodies for antibody detection at 37° C. for 1 hour, and then washed again with 0.1% PBST. ABTS solution (ThermoFisher Scientific, Cat. No.: 00-2024) was added to each well by 50 μL for coloring, and reacted at room temperature for 10 minutes, and an optical density at 405 nm (OD₄₀₅) was measured. In order to compare the degree of avidity of each antibody to antigens, the EC50 concentration of each antibody was calculated, and the results are shown in Table 4.

Binder	EC50
B1	7.7 nM
B2	127 nM
B3	12.5 nM

target: T1, BCAM protein (antigenic protein coated …); assay: ELISA, BCAM coated at 15 nM, antibody at 1 nM
Description: as §1

Binder	OD405
B1	0.5 OD405
B2	0.33 OD405
B3	0.46 OD405

target: T1, BCAM protein (antigenic protein coated …); assay: ELISA, BCAM coated at 15 nM, antibody at 10 nM
Description: as §1

Binder	OD405
B1	1.41 OD405
B2	0.43 OD405
B3	1.09 OD405

target: T1, BCAM protein (antigenic protein coated …); assay: ELISA, BCAM coated at 15 nM, antibody at 0.1 nM
Description: as §1

Binder	OD405
B1	0.31 OD405
B2	0.35 OD405
B3	0.18 OD405

target: T1, BCAM protein (antigenic protein coated …); assay: ELISA, BCAM coated at 15 nM, antibody at 100 nM
Description: as §1

Binder	OD405
B1	2.26 OD405
B2	0.46 OD405
B3	2.14 OD405

target: T1, BCAM protein (antigenic protein coated …); assay: ELISA, BCAM coated at 15 nM, antibody at 0.01 nM
Description: as §1

Binder	OD405
B1	0.25 OD405
B2	0.15 OD405
B3	0.11 OD405

target: T1, BCAM protein (antigenic protein coated …); assay: ELISA, BCAM coated at 15 nM, antibody at 1000 nM
Description: as §1

Binder	OD405
B1	2.34 OD405
B2	0.76 OD405
B3	2.32 OD405

target: T1, BCAM protein (antigenic protein coated …); assay: ELISA, BCAM coated at 15 nM, antibody at 0.001 nM
Description: as §1

Binder	OD405
B1	0.11 OD405
B2	0.1 OD405
B3	0.1 OD405

target: T2, Human BCAM expressed on transfected …; assay: flow cytometry on HEK293FT cells transfected with human BCAM
Description: Human BCAM antigens were expressed in HEK293FT cells via transfection (using 293FT/BCAM1 plasmid). The transfected HEK293FT cells (1×10⁵ cells) were suspended in PBS and 50 μL thereof was seeded on a plate.
Separately, each of the anti-BCAM antibodies of Example 1 and isotype control (human IgG) antibodies was initially diluted at a concentration of 45 μg/mL using PBS and diluted 12 times through 3-fold dilution, and the plate was incubated at an appropriate time and at an appropriate temperature. As a negative control, PBS buffer was used.
Then, after washing, AlexaFluor® 647 AffiniPure Goat Anti-Human IgG (H+L) (min X Bov, Hrs, Ms Sr Prot) (Jackson) (1 μg/mL) was added thereto and the plate was incubated again, washed again with PBS, and the binding degree of antigen-antibody was analyzed with a flow cytometer.

Binder	EC50
B1	0.0427 µg/mL
B2	0.171 µg/mL
B3	0.189 µg/mL

target: T3, Human BCAM (amine-coupled to AR2G …); assay: BLI (Octet QK), human BCAM amine-coupled to AR2G sensor, antibody in solution, 1:1 fit
Description: The binding ability confirmation test according to BLI for the three antibodies prepared in Example 1 was performed using Octet (Octet QK, ForteBio).
Specifically, in order to bind human BCAM (antigen) using amine coupling, Reactive 2nd Generation (AR2G) biosensors (Cat. No. 18-5094, Sartorius) were mounted and activated using the AE2G reagent kit (Cat. No. 18-5095). Thereafter, the biosensors were put in an antigen solution for 10 minutes to bind the human BCAM, and put in an ethanolamine solution for 5 minutes to terminate the reaction. The biosensors to which the human BCAM was bound was put into a buffer containing the prepared three different antibodies 111a, 111b, and 111c, and the binding reaction was monitored for 5 minutes, followed by a dissociation reaction for 15 minutes. At this time, antibody solutions were sequentially diluted, and association and dissociation rates depending on different concentrations were verified. The association (Ka) and dissociation (Kd) rate constants were determined by fitting them to a 1:1 binding model using a curve-fitting software. The binding dissociation equilibrium constant (KD) was calculated with KD=Kd/Ka.

Binder	Kd	koff	kon
B1	0.084 nM	0.000255 s⁻¹	3.04e+06 M⁻¹ s⁻¹
B2	13.1 nM	0.000306 s⁻¹	23400 M⁻¹ s⁻¹
B3	2.47 nM	0.000397 s⁻¹	161000 M⁻¹ s⁻¹
